Source: article PMC12774414

Biological target: LssaCA-His (L. striatellus salivary carbonic anhydrase lacking the signal peptide, C-terminal His tag) (Laodelphax striatellus)
Test: MST; 10 µM LssaCA^sp- (His-fusion) labelled with NT-647 (RED-NHS), added to serially diluted GST-NP or MBP-OsTLP^sp-; initial concentration 40 µM, 0.1% (v/v) Tween 20; Monolith NT.115; KD Fit

| Substance | Kd |
| --- | --- |
| GST-NP (rice stripe virus nucleocapsid protein, GST fusion) (natural protein) | 2700 nM |
| MBP-OsTLP (Oryza sativa thaumatin-like protein without its signal peptide, N-terminal MBP fusion) (enzyme) | 1300 nM |
